The values that follow come from US20050153395A1, “Unique integrin binding site in connective tissue growth factor (CTGF)” (CHILDREN'S HOSPITAL INC., priority 2003, published 2005).

The target in test [1] is integrin αvβ3 on activated rat hepatic stellate cells (HSC) (rat) (UniProt Q8R2H2). The test is described as follows: cell-based or functional assay.
Test [2] deals with integrin αvβ3 (purified, human) (human) (UniProt P06756). Description: solid phase ELISA, coated ligand, purified αvβ3 (1 µg/ml).
Chain of integrin αvβ3 (purified, human) (human) (P06756 31-1048, form in doubt, chain 1 of 2): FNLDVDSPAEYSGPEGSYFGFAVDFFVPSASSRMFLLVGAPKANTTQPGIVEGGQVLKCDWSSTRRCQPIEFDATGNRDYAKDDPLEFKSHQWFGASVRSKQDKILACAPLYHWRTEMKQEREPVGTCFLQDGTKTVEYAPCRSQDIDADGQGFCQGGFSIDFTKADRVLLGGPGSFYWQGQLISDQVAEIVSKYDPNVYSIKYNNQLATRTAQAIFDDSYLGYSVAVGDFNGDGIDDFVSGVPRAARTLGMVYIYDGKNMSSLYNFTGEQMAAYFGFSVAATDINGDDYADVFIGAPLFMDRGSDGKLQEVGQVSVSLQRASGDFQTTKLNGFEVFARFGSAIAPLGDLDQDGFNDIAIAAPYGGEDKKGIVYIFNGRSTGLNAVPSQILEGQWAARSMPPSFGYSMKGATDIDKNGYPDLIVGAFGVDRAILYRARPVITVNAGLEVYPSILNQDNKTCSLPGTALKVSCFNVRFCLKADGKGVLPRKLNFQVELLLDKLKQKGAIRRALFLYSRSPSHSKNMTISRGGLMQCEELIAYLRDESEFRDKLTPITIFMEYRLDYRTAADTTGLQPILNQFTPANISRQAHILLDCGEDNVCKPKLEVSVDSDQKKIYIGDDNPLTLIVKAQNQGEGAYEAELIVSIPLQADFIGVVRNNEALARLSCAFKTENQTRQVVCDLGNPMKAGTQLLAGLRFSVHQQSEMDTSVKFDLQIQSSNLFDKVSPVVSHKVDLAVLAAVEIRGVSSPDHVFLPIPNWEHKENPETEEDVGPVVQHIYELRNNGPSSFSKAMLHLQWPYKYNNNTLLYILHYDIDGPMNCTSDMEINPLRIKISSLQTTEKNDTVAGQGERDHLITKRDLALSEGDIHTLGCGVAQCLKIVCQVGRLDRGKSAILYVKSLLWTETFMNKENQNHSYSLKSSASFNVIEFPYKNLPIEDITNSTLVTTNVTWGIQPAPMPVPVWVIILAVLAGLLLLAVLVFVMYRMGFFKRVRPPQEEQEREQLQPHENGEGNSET
Chain of integrin αvβ3 (purified, human) (human) (P05106 27-788, form in doubt, chain 2 of 2, further chain): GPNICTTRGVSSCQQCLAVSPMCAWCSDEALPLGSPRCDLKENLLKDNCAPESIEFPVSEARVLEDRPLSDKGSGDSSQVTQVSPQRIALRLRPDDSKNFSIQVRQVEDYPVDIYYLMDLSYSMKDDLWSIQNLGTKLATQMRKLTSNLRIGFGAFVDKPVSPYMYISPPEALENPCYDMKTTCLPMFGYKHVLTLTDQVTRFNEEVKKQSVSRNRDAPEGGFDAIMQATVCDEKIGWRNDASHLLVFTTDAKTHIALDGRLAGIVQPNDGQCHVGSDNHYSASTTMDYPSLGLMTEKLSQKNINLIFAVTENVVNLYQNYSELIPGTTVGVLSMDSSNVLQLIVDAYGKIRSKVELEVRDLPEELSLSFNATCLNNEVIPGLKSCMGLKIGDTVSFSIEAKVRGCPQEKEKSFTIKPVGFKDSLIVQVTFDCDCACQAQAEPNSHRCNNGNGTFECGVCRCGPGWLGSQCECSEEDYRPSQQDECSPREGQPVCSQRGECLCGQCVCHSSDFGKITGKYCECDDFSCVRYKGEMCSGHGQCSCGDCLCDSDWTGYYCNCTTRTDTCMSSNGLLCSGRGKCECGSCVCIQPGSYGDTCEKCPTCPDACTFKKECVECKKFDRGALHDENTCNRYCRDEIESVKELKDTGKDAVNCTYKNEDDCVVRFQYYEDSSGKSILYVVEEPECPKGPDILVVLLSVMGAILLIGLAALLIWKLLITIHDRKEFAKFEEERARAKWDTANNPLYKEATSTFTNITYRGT

Chain of integrin αvβ3 on activated rat hepatic stellate cells (HSC) (rat) (Q8R2H2 26-787): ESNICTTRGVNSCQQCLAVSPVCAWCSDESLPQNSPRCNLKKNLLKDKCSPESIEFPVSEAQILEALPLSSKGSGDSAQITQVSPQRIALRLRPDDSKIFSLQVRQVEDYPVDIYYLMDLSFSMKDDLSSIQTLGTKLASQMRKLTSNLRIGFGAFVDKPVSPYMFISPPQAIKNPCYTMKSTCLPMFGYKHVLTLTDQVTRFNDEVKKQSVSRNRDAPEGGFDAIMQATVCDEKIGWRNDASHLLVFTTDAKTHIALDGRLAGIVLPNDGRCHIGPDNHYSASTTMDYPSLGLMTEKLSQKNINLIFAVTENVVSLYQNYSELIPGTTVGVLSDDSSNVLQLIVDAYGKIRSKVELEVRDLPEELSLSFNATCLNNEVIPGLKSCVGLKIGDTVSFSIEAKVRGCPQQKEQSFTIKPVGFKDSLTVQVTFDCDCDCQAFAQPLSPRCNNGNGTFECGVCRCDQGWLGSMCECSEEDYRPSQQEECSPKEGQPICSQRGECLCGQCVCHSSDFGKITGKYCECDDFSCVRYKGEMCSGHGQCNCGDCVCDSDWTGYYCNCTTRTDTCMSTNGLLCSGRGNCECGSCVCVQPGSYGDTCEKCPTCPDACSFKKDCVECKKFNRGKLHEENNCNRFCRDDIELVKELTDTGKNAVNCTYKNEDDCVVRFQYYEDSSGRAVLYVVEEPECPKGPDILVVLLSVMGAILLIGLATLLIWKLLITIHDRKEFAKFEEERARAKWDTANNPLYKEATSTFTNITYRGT

In turn, vitronectin (ligand) came in with a decrease in HSC binding to vitronectin by RGD peptides (GRGDsp, Echistatin) in test [1] of 100%. Besides, in test [2], the coating concentration at saturation of binding is 4 µg/mL.
